Assay results as given in PMC8599769.
Read-outs that look alike come from different tables or passages of the source.

Molecular target: T1, PhoB~P (phosphorylated response regulator PhoB) (Escherichia coli) (UniProt P0AFJ5)
T1 sequence: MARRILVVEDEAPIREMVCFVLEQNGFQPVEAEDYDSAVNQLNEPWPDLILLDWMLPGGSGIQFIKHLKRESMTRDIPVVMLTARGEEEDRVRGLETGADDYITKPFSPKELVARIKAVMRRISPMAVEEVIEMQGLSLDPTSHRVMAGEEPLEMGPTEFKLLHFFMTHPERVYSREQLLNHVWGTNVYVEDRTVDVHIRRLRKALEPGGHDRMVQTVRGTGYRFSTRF
Assay: EMSA

Substance	Kd [nM]	Kd (cited from earlier work) [nM]
ATCACATGGTCCTGCTGGAGTTCGTGACCGCCGCCGGGATCACTCTCGGCATGGACGAGCTGTACAAGTAGCTGACCCGGGGAGGGTCGTTCTGTCATAAAACTGTCATATTCCACCGGGAAGGCTTGAGCTCCTAGATACATTCAAATATGTATCCGCTCATGAGACAATAACCCTGATA (double strand) [Decoy DNA (1 PhoB consensus site)]	200	–
phnC promoter PhoB site DNA	–	1500
